For this experiment, the target named is recombinant human IGF2R extracellular domains 1–15, biotinylated CD4 (domains 3 and 4) fusion protein (human) (UniProt P11717). Briefly: SPR; BIAcore T200; 1800 RU biotinylated IGF2R fusion protein immobilised on a streptavidin-loaded CM5 chip; IGF2 256 to 0.125 nM injected for 200 s at 40 µL/min, 25°C, HBS-EP buffer; kinetic fit to a 1:1 binding model and steady state analysis. (Surface plasmon resonance follows binding to a sensor surface in real time, without labels.)

With recombinant human IGF2 (ligand), the Kd was 1 to 4 nM.

As for recombinant mouse IGF2 (ligand), the Kd was 3 to 6 nM.

For orientation: Kd means the free concentration of one partner at which half of the binding sites on the other are occupied at equilibrium, for simple one-to-one binding.

These data come from paper PMC3585325.
